The values below come from publication doi:10.1101/2021.03.30.437644.

The target in series [1] is T1, SLIM1 (Arabidopsis thaliana (Col-0), UniProt O23116 1-567).
T1 sequence: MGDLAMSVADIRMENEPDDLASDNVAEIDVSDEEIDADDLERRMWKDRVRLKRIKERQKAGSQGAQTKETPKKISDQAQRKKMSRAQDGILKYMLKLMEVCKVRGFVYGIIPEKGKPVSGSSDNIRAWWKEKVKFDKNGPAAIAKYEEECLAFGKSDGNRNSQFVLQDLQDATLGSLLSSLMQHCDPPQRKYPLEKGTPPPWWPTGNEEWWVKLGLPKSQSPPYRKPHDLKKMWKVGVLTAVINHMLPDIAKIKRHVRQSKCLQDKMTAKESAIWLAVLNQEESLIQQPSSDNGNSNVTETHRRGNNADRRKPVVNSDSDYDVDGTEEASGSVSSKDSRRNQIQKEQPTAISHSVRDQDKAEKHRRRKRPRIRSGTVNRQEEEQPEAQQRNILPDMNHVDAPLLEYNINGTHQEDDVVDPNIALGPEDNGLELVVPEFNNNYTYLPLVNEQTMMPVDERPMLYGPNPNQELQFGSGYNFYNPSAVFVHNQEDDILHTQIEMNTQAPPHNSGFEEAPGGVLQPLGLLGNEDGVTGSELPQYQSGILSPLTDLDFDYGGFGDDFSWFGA
In words: EMSA. Background: Mobility shift assays separate free from complexed probe on a gel.

Series [2] has as its target T2, bZIP44 (Arabidopsis thaliana (Col-0), UniProt C0Z2L5 1-173). As to the kind of experiment: competition EMSA.
The target in series [3] is T3, HYH (bZIP64) (Arabidopsis thaliana (Col-0), UniProt Q8W191 1-149).
T3 sequence: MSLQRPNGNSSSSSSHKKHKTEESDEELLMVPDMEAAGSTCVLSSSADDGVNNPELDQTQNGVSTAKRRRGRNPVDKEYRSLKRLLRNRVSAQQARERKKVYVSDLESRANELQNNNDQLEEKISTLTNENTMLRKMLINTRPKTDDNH
As to the kind of experiment: competition EMSA.

Series [4] concerns the target T4, bZIP16 (Arabidopsis thaliana (Col-0), UniProt Q501B2 1-409).
T4 sequence: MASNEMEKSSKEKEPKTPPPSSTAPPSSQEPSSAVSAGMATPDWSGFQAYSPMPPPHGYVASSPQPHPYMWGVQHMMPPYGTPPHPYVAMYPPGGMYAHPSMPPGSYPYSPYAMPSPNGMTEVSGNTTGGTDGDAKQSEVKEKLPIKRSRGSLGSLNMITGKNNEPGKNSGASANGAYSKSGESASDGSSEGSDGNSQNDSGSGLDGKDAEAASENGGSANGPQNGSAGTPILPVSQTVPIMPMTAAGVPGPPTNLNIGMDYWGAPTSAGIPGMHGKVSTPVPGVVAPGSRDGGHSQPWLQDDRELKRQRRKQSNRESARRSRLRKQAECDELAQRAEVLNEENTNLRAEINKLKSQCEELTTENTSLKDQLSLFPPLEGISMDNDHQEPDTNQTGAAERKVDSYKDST
As to the kind of experiment: competition EMSA.

The target in series [5] is T2, bZIP44. As to the kind of experiment: EMSA.
Series [6] addresses T3, HYH (bZIP64). In words: EMSA.
Series [7] concerns the target T4, bZIP16. In words: EMSA.
Series [8] concerns the target T5, GBF1 (bZIP41) (Arabidopsis thaliana (Col-0), UniProt P42774 1-315).
T5 sequence: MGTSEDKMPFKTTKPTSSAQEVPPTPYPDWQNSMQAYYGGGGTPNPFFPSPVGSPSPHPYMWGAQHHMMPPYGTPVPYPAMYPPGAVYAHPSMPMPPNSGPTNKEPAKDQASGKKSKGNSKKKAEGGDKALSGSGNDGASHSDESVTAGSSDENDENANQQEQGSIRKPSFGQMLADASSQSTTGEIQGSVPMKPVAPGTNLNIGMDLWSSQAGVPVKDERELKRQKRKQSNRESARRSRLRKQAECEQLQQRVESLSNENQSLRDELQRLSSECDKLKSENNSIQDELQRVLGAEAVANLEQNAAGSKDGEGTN
As to the kind of experiment: EMSA.

T2 sequence (C0Z2L5 whole entry): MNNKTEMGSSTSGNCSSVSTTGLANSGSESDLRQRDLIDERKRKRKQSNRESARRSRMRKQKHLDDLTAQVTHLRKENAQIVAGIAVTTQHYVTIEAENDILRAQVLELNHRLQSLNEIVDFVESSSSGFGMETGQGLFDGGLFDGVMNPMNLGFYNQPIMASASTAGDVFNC

B1: Probe 2 (proxSDI2) (dsDNA)
DNA 1: GAGAGATAAAGAAGGTTTCTTCATTTAGAAACAGAGACACGAAGTTTGCG
DNA 2: CGCAAACTTCGTGTCTCTGTTTCTAAATGAAGAAACCTTCTTTATCTCTC
In the case of B1, the binding result in series [1] is given as “binds”.

B2: Mutated probe 4 (dsDNA)
DNA 1: GACGGATAGGGTAAAAGGCACTATTTTATA
DNA 2: TATAAAATAGTGCCTTTTACCCTATCCGTC
Turning to B2, the binding result in series [2], in series [3] and in series [4] was “no binding” each time.

B3: Probe 4 (proxSDI2) (dsDNA)
DNA 1: GACGGATAGGGTACGTGGCACTATTTTATA
DNA 2: TATAAAATAGTGCCACGTACCCTATCCGTC
As to B3, the binding result in series [5], in series [6] and in series [7] was “binds” throughout.

B4: Probe 1 (proxSDI1) (dsDNA)
DNA 1: GTGGTAAGAAGTCTCCAAGTGACGTGGCAGCTTCTATGAACAGAGACGAA
DNA 2: TTCGTCTCTGTTCATAGAAGCTGCCACGTCACTTGGAGACTTCTTACCAC
Turning to B4, in series [1], the binding result is on record as “binds”.

B5: Probe 3 (proxSDI2) (dsDNA)
DNA 1: GACCAGCCCGCGGTATTTTAGATCCAGTTGACGATAATGAACCAAGACGA
DNA 2: TCGTCTTGGTTCATTATCGTCAACTGGATCTAAAATACCGCGGGCTGGTC
Consider B5, for which the binding result in series [8] is on record as “binds”.
